Reference: the supplement of paper PMC10724198
± gives the standard deviation of the averaged measurements.

Legend:
Saccharomyces cerevisiae [1] = assay: protein stability index of tFT-peptide fusion in wild type (PSI (0-1 scale)); higher = more stable (slower turnover); details: genetic background: wild type
Saccharomyces cerevisiae [2] = assay: protein stability index of tFT-peptide fusion in deletion strain of DOA10 (PSI (0-1 scale)); higher = more stable (slower turnover)
Procedure: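 MPS profiling in S. cerevisiae of two library types built from selected 12-aa C-degron peptides (IN1, IN2, LN1, LN3, VN2, R1-R5, W1-W3, Atg1 and Rpa12 C-termini): saturation mutagenesis libraries and C-terminal +1 capping libraries (13 aa). Each peptide is fused to the C-terminus of a sfGFP-mCherry timer, after a GGGS linker. Cells are FACS-sorted into 8 mCherry/sfGFP bins and sequenced. PSI runs from 0 (unstable) to 1 (stable), measured once in wild type and in the das1Δ or doa10Δ background.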

Saccharomyces cerevisiae [3] = assay: protein stability index of tFT-peptide fusion in deletion strain of DAS1 (PSI (0-1 scale)); higher = more stable (slower turnover)
Saccharomyces cerevisiae [4] = assay: protein stability index of tFT-peptide fusion (C-terminal peptide) (PSI (0-1 scale)); higher = more stable (slower turnover)
Procedure: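 MPS profiling in S. cerevisiae of the tFT-X12 degron library: putative degron peptides plus stable controls, 12 aa, fused to the C-terminus of a sfGFP-mCherry timer. Cells are FACS-sorted into 8 mCherry/sfGFP bins and deep-sequenced. PSI runs from 0 (unstable) to 1 (stable). Backgrounds are wild type, das1Δ and doa10Δ at 30 °C, and wild type, das1Δ, cdc34-1 and cdc53-1 at 37 °C; 2-3 technical replicates each.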
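Throughout, for protein stability index of tFT-peptide fusion (C-terminal peptide): PSI is a weighted mean of sequencing reads over stability bins, variants kept only with over 10 reads, mCherry proximal and sfGFP distal, peptide attached via GGGS linker.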
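Throughout, for protein stability index of tFT-peptide fusion in deletion strain of DAS1: PSI is a weighted mean of each variant's read distribution over the sorted stability bins, computed only for variants having over 10 reads in total.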
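Throughout, for protein stability index of tFT-peptide fusion in deletion strain of DOA10: PSI per variant is the weighted mean of its sequencing read distribution over the sorted stability bins, counting only variants with over 10 reads summed across bins.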
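Throughout, for protein stability index of tFT-peptide fusion in wild type: PSI derived as read-weighted mean over the 8 sorting bins, only variants exceeding 10 total reads kept, mCherry placed adjacent to the peptide and sfGFP distal.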

Row | Sequence | protein stability index (Saccharomyces cerevisiae [1]) | protein stability index (Saccharomyces cerevisiae [2]) | also measured
1 | AFTLPMCPLLLR | 0.171 | 0.653 | 
2 | AICLPMCPLLLR | 0.224 | 0.632 | 
3 | AILLPMCPLLLR | 0.281 | 0.612 | 
4 | AITLPMCALLLR | 0.149 | 0.638 | 
5 | AITLPMCPLLKR | 0.645 | 0.676 | 
6 | AITLPMCPLLLI | 0.493 | 0.596 | 
7 | AITLPMCPLLLRD | 0.422 | 0.65 | 
8 | AITLPMCPLLLV | 0.349 | 0.417 | 
9 | AITLPMCPLLVR | 0.181 | 0.231 | 
10 | AITLPMCPLTLR | 0.363 | 0.672 | 
11 | AITLPMCQLLLR | 0.174 | 0.663 | 
12 | AITLPMEPLLLR | 0.441 | 0.67 | 
13 | AITLPMVPLLLR | 0.153 | 0.622 | 
14 | AITLPNCPLLLR | 0.337 | 0.682 | 
15 | AITLPSCPLLLR | 0.304 | 0.669 | 
16 | AITVPMCPLLLR | 0.299 | 0.656 | 
17 | ARWGVGLWRGAS | 0.372 |  | protein stability index (Saccharomyces cerevisiae [3]): 0.685; protein stability index (Saccharomyces cerevisiae [4]; genetic background: cdc34-1, temperature: 37 C): 0.664 ± 0.02; protein stability index (Saccharomyces cerevisiae [4]; genetic background: cdc53-1, temperature: 37 C): 0.756 ± 0.0077; protein stability index (Saccharomyces cerevisiae [4]; genetic background: das1 deletion, temperature: 30 C): 0.6508 ± 0.0062; protein stability index (Saccharomyces cerevisiae [4]; genetic background: das1 deletion, temperature: 37 C): 0.76494 ± 7.7e-05; protein stability index (Saccharomyces cerevisiae [4]; genetic background: doa10 deletion, temperature: 30 C): 0.282 ± 0.018; protein stability index (Saccharomyces cerevisiae [4]; genetic background: wild type, temperature: 30 C): 0.299 ± 0.029; protein stability index (Saccharomyces cerevisiae [4]; genetic background: wild type, temperature: 37 C): 0.618 ± 0.012
18 | CKVSLPILLFFR | 0.0542 | 0.621 | 
19 | CLASLPILLFFR | 0.0826 | 0.626 | 
20 | CLHSLPILLFFR | 0.0715 | 0.626 | 
21 | CLVRLPILLFFR | 0.0563 | 0.595 | 
22 | CLVSAPILLFFR | 0.11 | 0.639 | 

Row | Sequence | protein stability index (Saccharomyces cerevisiae [1]) | protein stability index (Saccharomyces cerevisiae [2]) | also measured
23 | CLVSCPILLFFR | 0.0926 | 0.578 | 
24 | CLVSGPILLFFR | 0.217 | 0.631 | 
25 | CLVSIPILLFFR | 0.057 | 0.556 | 
26 | CLVSLPILLFFRE | 0.148 | 0.582 | 
27 | CLVSLPILLFFRN | 0.0659 | 0.531 | 
28 | CLVSLPILLFMR | 0.0691 | 0.56 | 
29 | CLVSLPILLMFR | 0.0704 | 0.581 | 
30 | CLVSLPILLPFR | 0.642 | 0.67 | 
31 | CLVSLPILLRFR | 0.153 | 0.647 | 
32 | CLVSLPILMFFR | 0.0684 | 0.591 | 
33 | CLVSLPILTFFR | 0.523 | 0.643 | 
34 | CLVSLPNLLFFR | 0.11 | 0.685 | 
35 | CQVSLPILLFFR | 0.0497 | 0.631 | 
36 | GKYMCSVGCWFR | 0.406 | 0.674 | 
37 | GLYICSVGCWFR | 0.181 | 0.539 | 
38 | GLYLCSVGCWFR | 0.21 | 0.575 | 
39 | GLYMCNVGCWFR | 0.385 | 0.676 | 
40 | GLYMCPVGCWFR | 0.26 | 0.664 | 
41 | GLYMCSFGCWFR | 0.239 | 0.665 | 
42 | GLYMCSHGCWFR | 0.435 | 0.695 | 
43 | GLYMCSVCCWFR | 0.47 | 0.548 | 
44 | GLYMCSVDCWFR | 0.574 | 0.615 | 

Row | Sequence | protein stability index (Saccharomyces cerevisiae [1]) | protein stability index (Saccharomyces cerevisiae [2]) | also measured
45 | GLYMCSVGCWFF | 0.473 | 0.532 | 
46 | GLYMCSVGCWFK | 0.291 | 0.628 | 
47 | GLYMCSVGCWFRF | 0.166 | 0.636 | 
48 | GLYMCSVGCWFRN | 0.286 | 0.584 | 
49 | GLYMCSVGCWFS | 0.381 | 0.445 | 
50 | GLYMCSVGCWVR | 0.215 | 0.341 | 
51 | GLYMCSVGGWFR | 0.644 | 0.674 | 
52 | GLYMCSVGHWFR | 0.656 | 0.679 | 
53 | GLYMCSVGSWFR | 0.634 | 0.69 | 
54 | GLYMCSVYCWFR | 0.255 | 0.374 | 
55 | GLYMHSVGCWFR | 0.255 | 0.706 | 
56 | GLYMLSVGCWFR | 0.246 | 0.464 | 
57 | GSLRVLLPLYFR | 0.242 | 0.685 | 
58 | HLYMCSVGCWFR | 0.401 | 0.63 | 
59 | LLVSLPILLFFR | 0.0951 | 0.561 | 
60 | PLVSLPILLFFR | 0.138 | 0.661 | 
61 | QLYMCSVGCWFR | 0.368 | 0.625 | 
62 | RDTRLDAIYFRI | 0.563 | 0.644 | 
63 | RFTRLDAIYFRI | 0.378 | 0.656 | 
64 | RITRLDAIYFRI | 0.397 | 0.673 | 
65 | RMLRVLLPLYFR | 0.359 | 0.656 | 
66 | RNLRVLLPLYFR | 0.302 | 0.682 | 

Row | Sequence | protein stability index (Saccharomyces cerevisiae [1]) | protein stability index (Saccharomyces cerevisiae [2]) | also measured
67 | RSLGVLLPLYFR | 0.321 | 0.691 | 
68 | RSLRMLLPLYFR | 0.376 | 0.615 | 
69 | RSLRVHLPLYFR | 0.157 | 0.67 | 
70 | RSLRVILPLYFR | 0.197 | 0.675 | 
71 | RSLRVLLKLYFR | 0.417 | 0.616 | 
72 | RSLRVLLPLKFR | 0.431 | 0.67 | 
73 | RSLRVLLPLRFR | 0.41 | 0.661 | 
74 | RSLRVLLPLYAR | 0.348 | 0.474 | 
75 | RSLRVLLPLYFD | 0.491 | 0.63 | 
76 | RSLRVLLPLYFI | 0.255 | 0.528 | 
77 | RSLRVLLPLYFK | 0.25 | 0.633 | 
78 | RSLRVLLPLYFM | 0.328 | 0.42 | 
79 | RSLRVLLPLYFQ | 0.431 | 0.615 | 
80 | RSLRVLLPLYFRA | 0.244 | 0.593 | 
81 | RSLRVLLPLYFRI | 0.184 | 0.484 | 
82 | RSLRVLLPLYFRT | 0.268 | 0.655 | 
83 | RSLRVLLPLYFS | 0.246 | 0.352 | 
84 | RSLRVLLPLYFT | 0.265 | 0.478 | 
85 | RSLRVLLPLYKR | 0.602 | 0.662 | 
86 | RSLRVLLPSYFR | 0.65 | 0.668 | 
87 | RSLRVLLRLYFR | 0.391 | 0.625 | 
88 | RSLRVLLSLYFR | 0.452 | 0.643 | 

Row | Sequence | protein stability index (Saccharomyces cerevisiae [1]) | protein stability index (Saccharomyces cerevisiae [2]) | also measured
89 | RSLRVLLVLYFR | 0.269 | 0.389 | 
90 | RSLRVLRPLYFR | 0.257 | 0.684 | 
91 | RSLRVLYPLYFR | 0.279 | 0.67 | 
92 | RSLRVYLPLYFR | 0.268 | 0.678 | 
93 | RSLRWLLPLYFR | 0.427 | 0.642 | 
94 | RSLRYLLPLYFR | 0.378 | 0.671 | 
95 | RVPRLDAIYFRI | 0.389 | 0.669 | 
96 | RVTDLDAIYFRI | 0.636 | 0.678 | 
97 | RVTLLDAIYFRI | 0.455 | 0.662 | 
98 | RVTRGDAIYFRI | 0.553 | 0.693 | 
99 | RVTRKDAIYFRI | 0.564 | 0.664 | 
100 | VRGAVGGWRYVG | 0.157 |  | protein stability index (Saccharomyces cerevisiae [3]): 0.686
101 | VRGAVGHWRLVG | 0.157 |  | protein stability index (Saccharomyces cerevisiae [3]): 0.678
102 | VRGAVIGWRLVG | 0.146 |  | protein stability index (Saccharomyces cerevisiae [3]): 0.68
103 | VRGAWGGWRLVG | 0.147 |  | protein stability index (Saccharomyces cerevisiae [3]): 0.692
104 | VRPAVGGWRLVG | 0.106 |  | protein stability index (Saccharomyces cerevisiae [3]): 0.68
105 | WSLAASFWRVVG | 0.116 |  | protein stability index (Saccharomyces cerevisiae [3]): 0.668
106 | YKHKKGQKQKIN | 0.176 |  | protein stability index (Saccharomyces cerevisiae [3]): 0.607
107 | YRWRVGLWRGAS | 0.223 |  | protein stability index (Saccharomyces cerevisiae [3]): 0.66
